These results are taken from article doi:10.1101/2022.03.17.484533.

Assay [1] addresses LiRecT (RecT homolog from the A118 prophage of Listeria innocua) (Listeria innocua). Nature of the assay: cryo-EM structure.
For assay [2] the target is unchanged. Description: cryo-EM structure. This is another data set of the same source.
Assay [3] has the same target. Description: native MS.

The term stoichiometry N denotes the number of molecules, sites or subunits per partner or assembly.

As to “LiRecT (RecT homolog from the A118 prophage of Listeria innocua) (natural protein)”, the stoichiometry N was 18 subunits in assay [1], 12 subunits in assay [2] and < 9 subunits in assay [3].
